From the supplement of paper PMC9170038

Test system: MS2 coat protein
Experiment: apparent KD of MS2 coat protein; designed switch direction (-1 OFF switch, 1 ON switch): -1; higher = weaker reporter binding
How it was run: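 The reported apparent KD is a per-design median over clusters, from curve fits of normalised cluster fluorescence. Protein titrations used SNAP-549-labelled MS2 coat protein, doubled from 0.7 or 1.5 nM to 3 µM, in Tris-HCl pH 7.5 buffer with KCl, MgCl2, BSA, DTT, tRNA and Tween-20, with no input, 200 uM small-molecule ligand, or an oligonucleotide input. The RNA switches were transcribed on Illumina chips by stalled E. coli RNA polymerase.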

[1] = Eterna round: R95, input ligand: FMN 200 uM
[2] = Eterna round: R95, input ligand: microRNA oligo, concentration not stated
[3] = Eterna round: R95, input ligand: none
[4] = input ligand: microRNA oligo, concentration not stated

Sequence | apparent KD of MS2 coat protein (input ligand: FMN 200 uM) | apparent KD of MS2 coat protein (input ligand: none) | apparent KD of MS2 coat protein [1] | apparent KD of MS2 coat protein [2] | apparent KD of MS2 coat protein [3] | apparent KD of MS2 coat protein [4]
UGCGGGCUUUUGAGACCUCACAUGAGGAUCACCCAUGUGCUUGUCUUGUGGGUCGGUCGGUCGUUGGCUGGCUGACG [Sensor-V1 #96] (Eterna round: R97, puzzle: Sensor, turn-off variant 1) | 19.2 nM | 19.3 nM |  |  |  | 
UGCGGGCUUUUGAGACCUCACAUGAGGAUCACCCAUGUGCUUGUCUUGUGGGUCGGUCGGUCGUUGGCUGGCUGGCG [Sensor-V1 #95] (Eterna round: R97, puzzle: Sensor, turn-off variant 1) | 20 nM | 19.3 nM |  |  |  | 
UGCGGUUGAGGAUAUACGUAGAACUAGGUUCAUGUAAAACUACAUGAGGAUCACCCAUGUAGAAGGCAAUCGCU [Mat - Exclusion 2 - JL Mod - D41] (Eterna round: R97, puzzle: Exclusion 2) | 23.9 nM | 20.3 nM |  |  |  | 
UGCUAGUCAGGAUAUACGAACAUGUCAAAAGACGUGAAGGGACAUGAGGAUCACCCAUGUAGAAGGGACUAGCU [salish99_ex2_r3_006] (puzzle: Exclusion 2) |  |  | 165 nM | 25.2 nM | 27.1 nM | 
UGCUAGUGAGGAUAUGCUGGAAUAAAGAUUUGACGUGGCGAACAUGAGGAUCACCCAUGUAGAAGGCACAAUAC [Ususedes] (puzzle: Exclusion 2) |  |  |  | 12.1 nM |  | 
UGCUGAGUUGACAGUGGUAACAUGAGGAUCACCCAUGUAUGUUUGUGCUUAAGCGGGUUGUUUCUUGUUCGUCUCUC [Eternabot (L2) Solution 5] (Eterna round: R97, puzzle: Sensor, turn-off variant 1) | 262 nM | 349 nM |  |  |  | 
UGGACACCAGUAGGAUAUGUAGGAUAUGUUGUUGAGGAUCACCCAACAAAUUAAACGACAGAAGGACAGAAGGACUAUUAUCCU [pwkr exNG2 2xFMN 1xF5.1] (Eterna round: R96, puzzle: Exclusion NG 2) | 52.5 nM | 60.8 nM |  |  |  | 57.8 nM
UGGCUACCUUGGUGCUCUACAAGCUUUUUGCUCGUUUUAACAUGAGGAUCACCCAUGUCUAGUGGAUCUGAUCGGGC [JL ViennaUCT Isreen mod 1] (puzzle: Sensor v3, turn-off variant 2) |  |  | 62.1 nM | 139 nM | 62.7 nM | 
UGGGUACUCCAUAGAAGAAACAUGAGGAUCACCCAUGUAGGGCAAGUUUUUUGCUCGUCAUAGGUUGAGGGAUUGGA [JR_SV3TOV1_Sub016] (puzzle: Sensor v3, turn-off variant 1) |  |  | 685 nM | 343 nM | 978 nM | 
UGGUAACAUGAGGAUCACCCAUGUCAGGAUAUCAGGAAGAAGAGAGGAGAGUAGAAGAUGAGAAGGGACUAUAU [Excluse me! 10 - Jieux - Exclusion 1] (puzzle: Exclusion 1) |  |  | 20.2 nM | 24.5 nM | 27.5 nM | 
UGGUAAUCAGUUAGGAUAUCAUCCGGCGUUGUCGGUGAGAAGGAACAUGAGGAUCACCCAUGUAUCGAUUUUAG [BmEX4 B.13] (Eterna round: R97, puzzle: Brourd's mod of Exclusion 4) | 26.5 nM | 19 nM |  |  |  | 
UGGUGGAAGCAGGAUAUGCUUGUAUUAUUGAUAGCAGAAGGGCUAACAUGAGGAUCACCCAUGUAAGAGGUGUA [JR_E6_Sub057] (puzzle: Exclusion 6) |  |  | 190 nM | 203 nM | 238 nM | 
UGGUGGAAGCAGGAUAUGCUUGUAUUAUUGAUUGCAGAAGGGCUAACAUGAGGAUCACCCAUGUAAGAGGUGUU [JR_E6_Sub056] (puzzle: Exclusion 6) |  |  | 303 nM | 289 nM | 327 nM | 
UGGUGUGCGAAGGAUAUGUAGGCUAUCAUGUCAAUAGAAGGUUGCACAUGAGGAUCACCCAUGUAAGCCACUUA [Eternabot (L1) Solution 17] (Eterna round: R97, puzzle: Exclusion 6) | 69.2 nM | 83 nM |  |  |  | 
UGUACGCGAGGAUAUACAUGAGGAUCACCCAUGUCAUAUGAAAUGUAAUGAGUAGCGGGUAGAAGGCGCUUUUG [Eternabot (L2) Solution 26] (Eterna round: R97, puzzle: Exclusion 3) | 21.8 nM | 31.3 nM |  |  |  | 
UGUAGUUCAGGAUAUGAUGUUAAAUACAUGAGGAUCACCCAUGUAGAUCCUGAAUUUACAUCAGAAGGGAAUAUUU [JL-ex5-4.56 Brourd mod] (Eterna round: R97, puzzle: Exclusion 5) | 22.8 nM | 17.1 nM |  |  |  | 
UGUCAGAUGGUAGGAUAUCCAUAUCGAGUGACCCUUUCAUAACAUGAGGAUCACCCAUGUUGGUGGGAGAAGGGCCGUAUGGUG [salish99_ExNG02_R04_026] (Eterna round: R96, puzzle: Exclusion NG 2) | 13.2 nM | 15.5 nM |  |  |  | 12.7 nM
UGUCAGAUGGUAGGAUAUCCAUAUCGAGUGACCCUUUCUUAACAUGAGGAUCACCCAUGUCGGUGGGAGAAGGGCCGUAUGGUG [salish99_ExNG02_R04_032] (Eterna round: R96, puzzle: Exclusion NG 2) | 31.4 nM | 29.9 nM |  |  |  | 24 nM
UGUCAGUCAGGAUAUGCAUACGUAGACAUGAGGAUCACCCAUGUGACGUGGGACUGGUGUGUAGAAGGGACGAACA [EX5 #79] (Eterna round: R97, puzzle: Exclusion 5) | 29.8 nM | 28.6 nM |  |  |  | 
UGUGCGUAUGUGAGGAUAUGCUGGUCCUUGGAUCAGCAGAAGGCACAUGAGGAUCACCCAUGUGGUGUCGUACC [salish99_Bmod_Ex4_002] (puzzle: Brourd's mod of Exclusion 4) |  |  |  | 243 nM |  | 
UGUGCGUAUGUGAGGAUAUGCUGGUCCUUGGAUCGGCAGAAGGCACAUGAGGAUCACCCAUGUGGUGUCGUACC [salish99_Bmod_ex4_075] (puzzle: Brourd's mod of Exclusion 4) |  |  |  | 154 nM |  | 
UGUGCGUAUGUGAGGAUAUGCUGGUCCUUGGAUCGGCAGAAGGCACAUGAGGAUCACCCAUGUGGUGUCGUACU [salish99_Bmod_ex4_083] (puzzle: Brourd's mod of Exclusion 4) |  |  |  | 235 nM |  | 
UGUGCGUAUGUGAGGAUAUGCUGGUCCUUGGAUCGGCAGAAGGCACAUGAGGAUCACCCAUGUGGUGUCGUUCG [salish99_Bmod_ex4_097] (puzzle: Brourd's mod of Exclusion 4) |  |  |  | 206 nM |  | 
UGUGCUUCAGGAUAUACGUGACGUCCGUGAGGACGAAGGUUACAUGAGGAUCACCCAUGUAGAAGGGAAGUACU [Mat - Exclusion 2 - JL Mod - D30] (Eterna round: R97, puzzle: Exclusion 2) | 110 nM | 20.2 nM |  |  |  | 
UGUUGUCGCGCAGGAUAUGAGGAUCACCCAUAUAGAGGAUAUGAAAAGAAGGCUCUGAGGAUCACCCAGAAGGGCGGGACAACU [pwkr exNG2 2xF5 2xFMN.23] (Eterna round: R96, puzzle: Exclusion NG 2) | 1390 nM | 222 nM |  |  |  | 141 nM
UGUUGUUCAGGAUAUGGUGUGUUUUACAUGAGGAUCACCCAUGUGGGUCCUGGUUUGGCGUCAGAAGGGAAUGUUG [salish99_ex5_r4_117] (Eterna round: R97, puzzle: Exclusion 5) | 788 nM | 1040 nM |  |  |  | 
UUAAAGGCAGGAUAUACAUUUUUUUUAUUAUCCUCAUUAUUACAUGAGGAUCACCCAUGUAGAAGGGCCAAAUU [Mat - Exclusion 2 - Mod of Hog - D85] (Eterna round: R96, puzzle: Exclusion 2) | 312 nM | 357 nM |  |  |  | 187 nM
UUAAAGGCAGGAUAUACAUUUUUUUUAUUAUCCUCAUUAUUACAUGAGGAUCACCCAUGUAGAAGGGCCAAAUU [Mat - Exclusion 2 - Mod of Hog - D85] (puzzle: Exclusion 2) |  |  |  | 57.6 nM |  | 
UUAAAUCAUGUAGGAUAUGCGUGGCGAAGCUAUGCAGAAGGACAUGAGGAUCACCCAUGUGCUUGCGUCUGCGUACAGAUGCUA [JL ENG1 1.12] (Eterna round: R96, puzzle: Exclusion NG 1) | 112 nM | 63.7 nM |  |  |  | 52.8 nM
UUAAAUCAUGUAGGAUAUGCGUGGCGAAGCUAUGCAGAAGGACAUGAGGAUCACCCAUGUUCUAGCGUCCGCGUACGGAUGCAA [JL Eng1 1.21 mod 10] (Eterna round: R96, puzzle: Exclusion NG 1) | 144 nM | 18.6 nM |  |  |  | 12 nM
